The data set deals with the molecule itself. The data set can be described thus: SEC-HPLC with light scattering, self-association (homodimer). In general terms: Size exclusion chromatography separates by hydrodynamic size, large species first.

B1: recombinant human heparan N-sulfatase (rhHNS), mature form (enzyme)
chain: RPRNALLLLADDGGFESGAYNNSAIATPHLDALARRSLLFRNAFTSVSSCSPSRASLLTGLPQHQNGMYGLHQDVHHFNSFDKVRSLPLLLSQAGVRTGIIGKKHVGPETVYPFDFAYTEENGSVLQVGRNITRIKLLVRKFLQTQDDRPFFLYVAFHDPHRCGHSQPQYGTFCEKFGNGESGMGRIPDWTPQAYDPLDVLVPYFVPNTPAARADLAAQYTTVGRMDQGVGLVLQELRDAGVLNDTLVIFTSDNGIPFPSGRTNLYWPGTAEPLLVSSPEHPKRWGQVSEAYVSLLDLTPTILDWFSIPYPSYAIFGSKTIHLTGRSLLPALEAEPLWATVFGSQSHHEVTMSYPMRSVQHRHFRLVHNLNFKMPFPIDQDFYVSPTFQDLLNRTTAGQPTGWYKDLRHYYYRARWELYDRSRDPHETQNLATDPRFAQLLEMLRDQLAKWQWETHDPWVCAPDGVLEEKLSPQCQPLHNEL
notes: In the immunohistochemistry it was detected in fixed monkey tissue after intrathecal dosing; also called sulfamidase; human HNS
As for B1, the binding result is recorded as “binds”.

The values above are taken from US20120014936A1 (SHIRE HUMAN GENETIC THERAPIES, published 2012).
